Experimental data: IntAct's records for PubMed 21946559

B1: Leucine-rich repeat-containing protein 4C (Homo sapiens), Q9HCJ2 (parent)
chain: MLNKMTLHPQQIMIGPRFNRALFDPLLVVLLALQLLVVAGLVRAQTCPSVCSCSNQFSKVICVRKNLREVPDGISTNTRLLNLHENQIQIIKVNSFKHLRHLEILQLSRNHIRTIEIGAFNGLANLNTLELFDNRLTTIPNGAFVYLSKLKELWLRNNPIESIPSYAFNRIPSLRRLDLGELKRLSYISEGAFEGLSNLRYLNLAMCNLREIPNLTPLIKLDELDLSGNHLSAIRPGSFQGLMHLQKLWMIQSQIQVIERNAFDNLQSLVEINLAHNNLTLLPHDLFTPLHHLERIHLHHNPWNCNCDILWLSWWIKDMAPSNTACCARCNTPPNLKGRYIGELDQNYFTCYAPVIVEPPADLNVTEGMAAELKCRASTSLTSVSWITPNGTVMTHGAYKVRIAVLSDGTLNFTNVTVQDTGMYTCMVSNSVGNTTASATLNVTAATTTPFSYFSTVTVETMEPSQDEARTTDNNVGPTPVVDWETTNVTTSLTPQSTRSTEKTFTIPVTDINSGIPGIDEVMKTTKIIIGCFVAITLMAAVMLVIFYKMRKQHHRQNHHAPTRTVEIINVDDEITGDTPMESHLPMPAIEHEHLNHYNSYKSPFNHTTTVNTINSIHSSVHEPLLIRMNSKDNVQETQI
partner: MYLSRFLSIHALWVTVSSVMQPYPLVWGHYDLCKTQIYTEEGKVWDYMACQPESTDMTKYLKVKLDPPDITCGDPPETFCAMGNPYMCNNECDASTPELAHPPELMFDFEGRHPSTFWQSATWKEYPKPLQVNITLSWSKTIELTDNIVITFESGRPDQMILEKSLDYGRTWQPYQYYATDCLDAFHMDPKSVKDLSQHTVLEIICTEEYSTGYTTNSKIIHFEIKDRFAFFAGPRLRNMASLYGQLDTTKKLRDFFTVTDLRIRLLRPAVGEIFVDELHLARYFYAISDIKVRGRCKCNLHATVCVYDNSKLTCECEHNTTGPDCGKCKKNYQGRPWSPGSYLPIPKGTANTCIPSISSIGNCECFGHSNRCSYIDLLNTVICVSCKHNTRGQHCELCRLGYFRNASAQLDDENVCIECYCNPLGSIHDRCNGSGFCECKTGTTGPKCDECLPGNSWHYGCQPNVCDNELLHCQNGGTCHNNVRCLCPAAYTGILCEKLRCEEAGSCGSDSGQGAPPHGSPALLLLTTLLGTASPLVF
B2: Leucine-rich repeat-containing protein 4 (Homo sapiens), Q9HBW1 (parent)
chain: MKLLWQVTVHHHTWNAILLPFVYLTAQVWILCAAIAAAASAGPQNCPSVCSCSNQFSKVVCTRRGLSEVPQGIPSNTRYLNLMENNIQMIQADTFRHLHHLEVLQLGRNSIRQIEVGAFNGLASLNTLELFDNWLTVIPSGAFEYLSKLRELWLRNNPIESIPSYAFNRVPSLMRLDLGELKKLEYISEGAFEGLFNLKYLNLGMCNIKDMPNLTPLVGLEELEMSGNHFPEIRPGSFHGLSSLKKLWVMNSQVSLIERNAFDGLASLVELNLAHNNLSSLPHDLFTPLRYLVELHLHHNPWNCDCDILWLAWWLREYIPTNSTCCGRCHAPMHMRGRYLVEVDQASFQCSAPFIMDAPRDLNISEGRMAELKCRTPPMSSVKWLLPNGTVLSHASRHPRISVLNDGTLNFSHVLLSDTGVYTCMVTNVAGNSNASAYLNVSTAELNTSNYSFFTTVTVETTEISPEDTTRKYKPVPTTSTGYQPAYTTSTTVLIQTTRVPKQVAVPATDTTDKMQTSLDEVMKTTKIIIGCFVAVTLLAAAMLIVFYKLRKRHQQRSTVTAARTVEIIQVDEDIPAATSAAATAAPSGVSGEGAVVLPTIHDHINYNTYKPAHGAHWTENSLGNSLHPTVTTISEPYIIQTHTKDKVQETQI
partner: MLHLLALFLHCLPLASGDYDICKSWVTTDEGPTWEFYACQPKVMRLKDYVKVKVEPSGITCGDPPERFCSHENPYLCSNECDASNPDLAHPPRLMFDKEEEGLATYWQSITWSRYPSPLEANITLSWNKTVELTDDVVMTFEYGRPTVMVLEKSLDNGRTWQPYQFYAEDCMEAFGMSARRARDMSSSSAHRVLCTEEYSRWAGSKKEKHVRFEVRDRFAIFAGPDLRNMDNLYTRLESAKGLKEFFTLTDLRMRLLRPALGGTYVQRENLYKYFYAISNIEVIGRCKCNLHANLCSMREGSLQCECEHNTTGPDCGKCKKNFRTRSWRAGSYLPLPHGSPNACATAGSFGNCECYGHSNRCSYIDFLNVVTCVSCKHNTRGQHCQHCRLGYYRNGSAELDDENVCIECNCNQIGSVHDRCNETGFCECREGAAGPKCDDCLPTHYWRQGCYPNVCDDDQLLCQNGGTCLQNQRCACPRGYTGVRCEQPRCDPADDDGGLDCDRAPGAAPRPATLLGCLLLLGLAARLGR
B3: Netrin-G2 (Homo sapiens), Q96CW9 (parent)
chain: B2 partner
partner: B1 chain
B4: Leucine-rich repeat-containing protein 4 (Homo sapiens), Q9HBW1 (parent)
chain: B2 chain
partner: B1 partner
B5: Netrin-G1 (Homo sapiens), Q9Y2I2 (parent)
chain: B1 partner
partner: B2 chain
B6: Leucine-rich repeat-containing protein 4C (Homo sapiens), Q9HCJ2 (parent)
chain: B1 chain
partner: B2 partner
B7: Netrin-G2 (Homo sapiens), Q96CW9 (parent)
chain: B2 partner
partner: B2 chain
B8: Netrin-G1 (Homo sapiens), Q9Y2I2 (parent)
chain: B1 partner
partner: B1 chain

Variants of: B1
Settings: with ntng1_human NTNG1, Q9Y2I2

| Variant | effect of a mutation on the interaction |
| --- | --- |
| A205T | disrupting interaction |

Variants of: B2
Settings: with ntng2_human NTNG2, Q96CW9

| Variant | effect of a mutation on the interaction |
| --- | --- |
| G204T | disrupting interaction |

Variants of: B3
Settings: with lrc4c_human LRRC4C, Q9HCJ2

| Variant | effect of a mutation on the interaction |
| --- | --- |
| Y75T | disrupting interaction |
| P74A | disrupting interaction |

Variants of: B4
Settings: with ntng1_human NTNG1, Q9Y2I2

| Variant | effect of a mutation on the interaction |
| --- | --- |
| G204T | disrupting interaction |

Variants of: B5
Settings: with lrrc4_human LRRC4, Q9HBW1

| Variant | effect of a mutation on the interaction |
| --- | --- |
| Y86T | disrupting interaction |
| P85A | disrupting interaction |

Variants of: B6
Settings: with ntng2_human NTNG2, Q96CW9

| Variant | effect of a mutation on the interaction |
| --- | --- |
| A205T | disrupting interaction |

Variants of: B7
Settings: with lrrc4_human LRRC4, Q9HBW1

| Variant | effect of a mutation on the interaction |
| --- | --- |
| P74A | disrupting interaction |
| Y75T | disrupting interaction |

Variants of: B8
Settings: with lrc4c_human LRRC4C, Q9HCJ2

| Variant | effect of a mutation on the interaction |
| --- | --- |
| P85A | disrupting interaction |
| Y86T | disrupting interaction |
